Assay results as given in patent US12173301B2, “Weed control methods and related compositions and plants” (Syngenta Crop Protection AG, priority 2019, dated 2024).

Test: FatA enzymatic kinetic parameters with oleoyl-CoA as substrate
Assay type: biochemical
Settings: Michaelis-Menten; for Km: read-out: Km (μM) - best fit
Experimental: For the determination of FatA enzymatic kinetic parameters with oleoyl-CoA as substrate, assays are carried out essentially as described above for the testing of inhibitor compounds but with some changes to the method as follows. Oleoyl CoA is omitted from the assay master mix and added as a separate component to achieve final concentration of 40 μM, 23.5 μM. 13.8 μM, 8.1 μM, 4.8 μM, 2.8 μM and 1.7 μM (i.e. 1.7× dilution scheme). The level of enzymatic activity is determined from the slope of the progress curve (initial linear rates) using assay values measured at 0, 20, 40, 60, 90 and 120 s after addition of the enzyme. Kinetic parameters are then calculated using the Michaelis-Menten model as implemented in GraphPad Prism software.
FatA variant enzymes were prepared from 1 L E coli grows and assays carried out to determine enzyme kinetics as described in Example 1.

B1: N269W: Arabidopsis FatA acyl-ACP thioesterase variant, substitution N269W relative to SEQ ID NO: 1 (protein, listed as Arabidopsis thaliana)
chain: MLKLSCNVTDSKLQRSLLFFSHSYRSDPVNFIRRRIVSCSQTKKTGLVPLRAVVSADQGSVVQGLATLADQLRLGSLTEDGLSYKEKFVVRSYEVGSNKTATVETIANLLQEVGCNHAQSVGFSTDGFATTTTMRKLHLIWVTARMHIEIYKYPAWGDVVEIETWCQSEGRIGTRRDWILKDSVTGEVTGRATSKWVMMNQDTRRLQKVSDDVRDEYLVFCPQEPRLAFPEENNRSLKKIPKLEDPAQYSMIGLKPRRADLDMNQHVNWVTYIGWVLESIPQEIVDTHELQVITLDYRRECQQDDVVDSLTTTTSEIGGTNGSATSGTQGHNDSQFLHLLRLSGDGQEINRGTTLWRKKPSS
Question: What does the source list for B1?
Answer: kcat (s^−1) - best fit: 0.7 s⁻¹; Km: 1 µM

B2: A118V: Arabidopsis FatA acyl-ACP thioesterase variant, substitution A118V relative to SEQ ID NO: 1 (protein, listed as Arabidopsis thaliana)
chain: MLKLSCNVTDSKLQRSLLFFSHSYRSDPVNFIRRRIVSCSQTKKTGLVPLRAVVSADQGSVVQGLATLADQLRLGSLTEDGLSYKEKFVVRSYEVGSNKTATVETIANLLQEVGCNHVQSVGFSTDGFATTTTMRKLHLIWVTARMHIEIYKYPAWGDVVEIETWCQSEGRIGTRRDWILKDSVTGEVTGRATSKWVMMNQDTRRLQKVSDDVRDEYLVFCPQEPRLAFPEENNRSLKKIPKLEDPAQYSMIGLKPRRADLDMNQHVNNVTYIGWVLESIPQEIVDTHELQVITLDYRRECQQDDVVDSLTTTTSEIGGTNGSATSGTQGHNDSQFLHLLRLSGDGQEINRGTTLWRKKPSS
Question: What does the source list for B2?
Answer: kcat (s^−1) - best fit: 4.5 s⁻¹; Km: 2.4 µM

B3: A144Y: Arabidopsis FatA acyl-ACP thioesterase variant, substitution A144Y relative to SEQ ID NO: 1 (protein, listed as Arabidopsis thaliana)
chain: MLKLSCNVTDSKLQRSLLFFSHSYRSDPVNFIRRRIVSCSQTKKTGLVPLRAVVSADQGSVVQGLATLADQLRLGSLTEDGLSYKEKFVVRSYEVGSNKTATVETIANLLQEVGCNHAQSVGFSTDGFATTTTMRKLHLIWVTYRMHIEIYKYPAWGDVVEIETWCQSEGRIGTRRDWILKDSVTGEVTGRATSKWVMMNQDTRRLQKVSDDVRDEYLVFCPQEPRLAFPEENNRSLKKIPKLEDPAQYSMIGLKPRRADLDMNQHVNNVTYIGWVLESIPQEIVDTHELQVITLDYRRECQQDDVVDSLTTTTSEIGGTNGSATSGTQGHNDSQFLHLLRLSGDGQEINRGTTLWRKKPSS
Question: What does the source list for B3?
Answer: kcat (s^−1) - best fit: 11.5 s⁻¹; Km: 3.9 µM
